# From IntAct's records for PubMed 11711533
# B1: Tyrosine-protein phosphatase non-receptor type 12 (Mus musculus), P35831 (parent)
# chain: MEQVEILRRFIQRVQAMKSPDHNGEDNFARDFMRLRRLSTKYRTEKIYPTATGEKEENVKKNRYKDILPFDHSRVKLTLKTPSQDSDYINANFIKGVYGPKAYVATQGPLANTVIDFWRMIWEYNVVIIVMACREFEMGRKKCERYWPLYGEDPITFAPFKISCENEQARTDYFIRTLLLEFQNESRRLYQFHYVNWPDHDVPSSFDSILDMISLMRKYQEHEDVPICIHCSAGCGRTGAICAIDYTWNLLKAGKIPEEFNVFNLIQEMRTQRHSAVQTKEQYELVHRAIAQLFEKQLQLYEIHGAQKIADGNEITTGTMVSSIDSEKQDSPPPKPPRTRSCLVEGDAKEEILQPPEPHPVPPILTPSPPSAFPTVTTVWQDSDRYHPKPVLHMASPEQHPADLNRSYDKSADPMGKSESAIEHIDKKLERNLSFEIKKVPLQEGPKSFDGNTLLNRGHAIKIKSASSSVVDRTSKPQELSAGALKVDDVSQNSCADCSAAHSHRAAESSEESQSNSHTPPRPDCLPLDKKGHVTWSLHGPENATPVPDSPDGKSPDNHSQTLKTVSSTPNSTAEEEAHDLTEHHNSSPLLKAPLSFTNPLHSDDSDSDGGSSDGAVTRNKTSISTASATVSPASSAESACTRRVLPMSIARQEVAGTPHSGAEKDADVSEESPPPLPERTPESFVLADMPVRPEWHELPNQEWSEQRESEGLTTSGNEKHDAGGIHTEASADSPPAFSDKKDQITKSPAEVTDIGFGNRCGKPKGPREPPSEWT
# B2: Proline-serine-threonine phosphatase-interacting protein 1 (Mus musculus), P97814 (parent)
# chain: MMAQLQFRDAFWCRDFTAHTGYEVLLQRLLDGRKMCKDVEELLRQRAQAEERYGKELVQIARKAGGQTEMNSLRTSFDSLKQQTENVGSAHIQLALALREELRSLEEFRERQKEQRKKYEAIMDRVQKSKLSLYKKTMESKKAYDQKCRDADDAEQAFERVSANGHQKQVEKSQNKAKQCKESATEAERVYRQNIEQLERARTEWEQEHRTTCEAFQLQEFDRLTILRNALWVHCNQLSMQCVKDDELYEEVRLTLEGCDVEGDINGFIQSKSTGREPPAPVPYQNYYDREVTPLIGSPSIQPSCGVIKRFSGLLHGSPKTTPSAPAASTETLTPTPERNELVYASIEVQATQGNLNSSAQDYRALYDYTAQNSDELDISAGDILAVILEGEDGWWTVERNGQRGFVPGSYLEKL
# partner: B1 chain
# Variants of: B1
# Details: with ppip1_mouse Pstpip1, P97814
row,Variant,effect of a mutation on the interaction
1,C231S,decreasing interaction

# Variants of: B2
# Details: with ptn12_mouse Ptpn12, P35831
row,Variant,effect of a mutation on the interaction
1,Y344F,disrupting interaction
